{
  "source": "patent US7781394B2",
  "about": "“Methods for identifying anti-tumor and/or anti-angiogenesis drugs with deoxynucleoside 5′-monophosphate N-glycosidase as the target” (Institut Pasteur, priority 2006, dated 2010)",
  "substrate": "O=P(O)(O)OC[C@H]1O[C@@H](n2cnc3c(O)ncnc32)C[C@@H]1O",
  "assay": "Kinetic parameters of His-RCL (wild-type) with dNMP substrates, initial velocity measurements",
  "type": "biochemical, rat",
  "settings": "purine deoxynucleotides; 37.0 °C",
  "experimental": "The enzyme activity was determined either spectrophotometrically by following one of the reaction products, hypoxanthine or deoxyribose 5-phosphate, or by HPLC separation and UV detection of the released nucleobase and the remaining substrate. a) dIMP was used as a substrate and the hypoxanthine released oxidized to uric acid by xanthine oxidase. […] The decrease in absorbance at 340 nm was followed on a Amersham Biosciences Ultrospec 3100 pro spectrophotometer, using a millimolar absorbance coefficient of 6.22. […] Initial velocity experiments were carried out at variable concentrations of the six deoxynucleoside 5'-monophosphate: dAMP, dCMP, dGMP, dIMP, dTMP and dUMP (Table 1).",
  "data": [
    {"protein": "His-RCL (deoxynucleoside 5′-monophosphate N-glycosidase) (Rattus norvegicus) (protein, made in house; host or cells: E. coli Bli5 (BL21 (DE3) pDIA17), plasmid pET28aRcl) MAASGEQAPCSVYFCGSIRGGREDQALYARIVSRLRRYGKVLTEHVADAELEPLGEEAAGGDQFIHEQDLNWLQQADVVVAEVTQPSLGVGYELGRAVALGKPILCLFRPQSGRVLSAMIRGAADGSRFQVWDYAEGEVETMLDRYFEAYLPQKTASSSHPSA", "values": [
      {"measurement": "Km", "result": 450, "unit": "µM"},
      {"measurement": "kcat", "result": 0.0066, "unit": "s⁻¹"},
      {"measurement": "kcat/Km", "result": 14.7, "unit": "M⁻¹ s⁻¹"}
    ]}
  ]
}
